The text below walks through data of patent US20220041718A1 (AUTOLUS, published 2022).

Test [1] has as its target T1, Recombinant purified TRBC2 (human, UniProt A0A5B9 1-129, limits assumed).
T1 construct: Construct not described (may be a soluble TCR carrying TRBC2); also called TCR beta constant region 2; soluble recombinant biotinylated TRBC2
The experiment in a line: SPR (Biacore T200), biotinylated TRBC2 captured on a CAP chip, scFv-COMP injected; half-life of dissociation, t1/2 = ln 2/kd [cont.) C]. The procedure:
(§1) To test multivalent interaction of scFv-Fc and scFv-COMP antibody formats, a series S CAP chip was immobilised with Biotin capture reagent to 2500-5000 RU. Soluble recombinant biotinylated TRBC1 and TRBC2 were captured on flow cells 3, in independent experimental cycles, to a density of 90-110 RU. Purified anti-TRBC2 scFv-Fc or scFv-COMP antibodies were injected over the flow cell with 150s contact time and 300s dissociation at 30 μl/minute of flow rate. On flow cell 1, biotinylated protein was omitted and used for reference subtraction. A ‘0 concentration’ sensorgram of buffer alone was used as a double reference subtraction to factor for drift. Data were fit to a 1:1 Langmuir binding model. Since a capture system was used, a local Rmax parameter was used for the data fitting in each case. Off-rate value was determined, and half-life calculated according to: t1/2=ln 2/kd.

Test [2] has as its target T1, Recombinant purified TRBC2. The experiment in a line: SPR, biotinylated TRBC captured on CAP chip, antibody injected; t1/2=ln 2/kd. The procedure:
as §1
For orientation: SPR reads the build-up and loss of mass on a sensor chip optically.

For test [3], the target named is T1, Recombinant purified TRBC2. As to the kind of experiment: SPR, 1:1 interaction, antibody captured, TRBC as analyte; t1/2=ln 2/kd. The source says:
(§2) To test 1:1 binding interaction of the anti-TRBC2 scFv, a series S CM5 sensor chip was immobilised via amine coupling, with an anti-human Fc capture antibody to a density of 9000-10000 RU, using a Biacore T200 instrument. HBS-P+ buffer was used as running buffer in all experimental conditions. The test anti-TRBC2 antibody was captured on flow 4 to a density of 200-250 RU. Recombinant purified TRBC1 or TRBC2 at known concentrations were used as the ‘analyte’ and injected over the respective flow cells with 150s contact time and 300s dissociation at 30 μl/minute of flow rate. Flow cell 1 was unmodified and used for reference subtraction. A ‘0 concentration’ sensorgram of buffer alone was used as a double reference subtraction to factor for drift. Data were fit to a 1:1 Langmuir binding model. Since a capture system was used, a local Rₘₐₓ parameter was used for the data fitting in each case. Off-rate value was determined, and half-life calculated according to: t1/2=ln 2/kd.

For test [4], the target named is T1, Recombinant purified TRBC2. The experiment in a line: SPR (Biacore T200), captured anti-TRBC2 binder, recombinant TRBC2 as analyte; half-life of dissociation, t1/2 = ln 2/kd.
Source text: as §2

Test [5] has as its target T1, Recombinant purified TRBC2. As to the kind of experiment: SPR, IgG captured on anti-human Fc, TRBC2 as analyte. From the text:
(§3) A series S CM5 sensor chip was immobilised via amine coupling, with an anti-human Fc capture antibody to a density of 9000-10000 RU, using a Biacore T200 instrument. HBS-P+ buffer was used as running buffer in all experimental conditions. The test anti-TRBC2 antibodies (Table 1) were captured on flow cells 2, 3 and 4 to a density of 100-300 RU. Recombinant purified TRBC1 or TRBC2 at known concentrations were used as the ‘analyte’ and injected over the respective flow cells with 150s contact time and 300s dissociation at 30 μl/minute of flow rate. In each experiment, flow cell 1 was unmodified and used for reference subtraction. A ‘0 concentration’ sensorgram of buffer alone was used as a double reference subtraction to factor for drift. Data were fit to a 1:1 Langmuir binding model. Since a capture system was used, a local Rₘₐₓ parameter was used for the data fitting in each case.

Test [6] deals with T2, Recombinant purified TRBC1 (human, UniProt P01850 1-129, limits assumed).
T2 construct: Construct not described (may be a soluble TCR carrying TRBC1); also called TCR beta constant region 1; soluble recombinant biotinylated TRBC1
The experiment in a line: SPR, IgG captured on anti-human Fc, TRBC1 as analyte.
Source text: as §3

T2 sequence (P01850 1-129 limits assumed): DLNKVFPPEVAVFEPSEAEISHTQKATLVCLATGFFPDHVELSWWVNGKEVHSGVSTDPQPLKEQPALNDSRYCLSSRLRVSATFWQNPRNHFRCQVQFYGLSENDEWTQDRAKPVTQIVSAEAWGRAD
T1 sequence (A0A5B9 1-129 limits assumed): as the sequence (P01850 1-129 limits assumed) above, with N3K, K4N, E9K, F36Y counted along it

B1: anti-TRBC2 scFv-COMP (T28K, Y32F, A100N, Y102L, N103M in VH; N35R in VL of hJovi-1) (other)
chain: QVQLVQSGAEVKKPGASVKVSCKASGYKFTGFVMHWVRQAPGQGLEWMGFINPYNDDIQSNERFRGRVTMTRDTSISTAYMELSRLRSDDTAVYYCARGNGLMFDGAYRFFDFWGQGTMVTVSSGGGGSGGGGSGGGGSDIVMTQSPLSLPVTPGEPASISCRSSQRLVHSNGRTYLHWYLQKPGQSPRLLIYRVSNRFPGVPDRFSGSGSGTDFTLKISRVEAEDVGVYYCSQSTHVPYTFGQGTKLEIKRSGGGGSGGGGSGGGGSAGSDLGPQMLRELQETNAALQDVRELLRQQVREITFLKNTVMECDACGSGKKDPKSGGGGSYPYDVPDYA
notes: scFv fused to the COMP coiled-coil
For orientation: half-life means how long it takes for the measured level to halve. For B1, the t1/2 in test [1] worked out at 436 s. In addition, the half-life in test [2] stood at 438 s.

B2: anti-TRBC2 scFv (T28K, Y32F, A100N, Y102L, N103M in VH; N35R in VL of hJovi-1) (scFv)
scFv: QVQLVQSGAEVKKPGASVKVSCKASGYKFTGFVMHWVRQAPGQGLEWMGFINPYNDDIQSNERFRGRVTMTRDTSISTAYMELSRLRSDDTAVYYCARGNGLMFDGAYRFFDFWGQGTMVTVSSGGGGSGGGGSGGGGSDIVMTQSPLSLPVTPGEPASISCRSSQRLVHSNGRTYLHWYLQKPGQSPRLLIYRVSNRFPGVPDRFSGSGSGTDFTLKISRVEAEDVGVYYCSQSTHVPYTFGQGTKLEIKR
notes: the format in the assay is unsure
On to B2, for which the half-life in test [3] amounted to 8 s. In test [4], the t1/2 amounted to 8.3 s.

B3: hJovi-1 variant IgG, VH T28K, Y32F, A100N; VL N35R (antibody, V domains shown)
VH: QVQLVQSGAEVKKPGASVKVSCKASGYKFTGFVMHWVRQAPGQGLEWMGFINPYNDDIQSNERFRGRVTMTRDTSISTAYMELSRLRSDDTAVYYCARGNGYNFDGAYRFFDFWGQGTMVTVSS
VL: DIVMTQSPLSLPVTPGEPASISCRSSQRLVHSNGRTYLHWYLQKPGQSPRLLIYRVSNRFPGVPDRFSGSGSGTDFTLKISRVEAEDVGVYYCSQSTHVPYTFGQGTKLEIK
notes: IgG format
Usually Kd stands for the free concentration of one partner at which half of the binding sites on the other are occupied at equilibrium, for simple one-to-one binding. In the case of B3, the figures for the Kd in test [5] and in test [6] were 202 nM and 929 nM, respectively.

B4: hJovi-1 variant IgG, VH Y27F, T28K, Y32F, A100N; VL unmutated (antibody, V domains shown)
VH: QVQLVQSGAEVKKPGASVKVSCKASGFKFTGFVMHWVRQAPGQGLEWMGFINPYNDDIQSNERFRGRVTMTRDTSISTAYMELSRLRSDDTAVYYCARGNGYNFDGAYRFFDFWGQGTMVTVSS
VL: DIVMTQSPLSLPVTPGEPASISCRSSQRLVHSNGNTYLHWYLQKPGQSPRLLIYRVSNRFPGVPDRFSGSGSGTDFTLKISRVEAEDVGVYYCSQSTHVPYTFGQGTKLEIK
notes: IgG format
Turning to B4, the Kd in test [5] amounted to 1210 nM; in test [6] it was 4480 nM.

B5: hJovi-1 variant IgG, VH Y27W, T28K, Y32F, A100N; VL unmutated (antibody, V domains shown)
VH: QVQLVQSGAEVKKPGASVKVSCKASGWKFTGFVMHWVRQAPGQGLEWMGFINPYNDDIQSNERFRGRVTMTRDTSISTAYMELSRLRSDDTAVYYCARGNGYNFDGAYRFFDFWGQGTMVTVSS
VL: DIVMTQSPLSLPVTPGEPASISCRSSQRLVHSNGNTYLHWYLQKPGQSPRLLIYRVSNRFPGVPDRFSGSGSGTDFTLKISRVEAEDVGVYYCSQSTHVPYTFGQGTKLEIK
notes: IgG format
As for B5, the Kd in test [5] stood at 3060 nM; in test [6], 21000 nM.

B6: hJovi-1 variant IgG, VH Y27N, T28K, Y32F, A100N; VL unmutated (antibody, V domains shown)
VH: QVQLVQSGAEVKKPGASVKVSCKASGNKFTGFVMHWVRQAPGQGLEWMGFINPYNDDIQSNERFRGRVTMTRDTSISTAYMELSRLRSDDTAVYYCARGNGYNFDGAYRFFDFWGQGTMVTVSS
VL: DIVMTQSPLSLPVTPGEPASISCRSSQRLVHSNGNTYLHWYLQKPGQSPRLLIYRVSNRFPGVPDRFSGSGSGTDFTLKISRVEAEDVGVYYCSQSTHVPYTFGQGTKLEIK
notes: IgG format
In the case of B6, the Kd in test [5] was determined as 6950 nM; in test [6] it was 74300 nM.

B7: hJovi-1 variant IgG, VH T28K, Y32F, R98K, A100N; VL unmutated (antibody, V domains shown)
VH: QVQLVQSGAEVKKPGASVKVSCKASGYKFTGFVMHWVRQAPGQGLEWMGFINPYNDDIQSNERFRGRVTMTRDTSISTAYMELSRLRSDDTAVYYCAKGNGYNFDGAYRFFDFWGQGTMVTVSS
VL: DIVMTQSPLSLPVTPGEPASISCRSSQRLVHSNGNTYLHWYLQKPGQSPRLLIYRVSNRFPGVPDRFSGSGSGTDFTLKISRVEAEDVGVYYCSQSTHVPYTFGQGTKLEIK
notes: IgG format
B7: the figures for the Kd in test [5] and in test [6] were 1080 nM and 4660 nM, respectively.

B8: hJovi-1 variant IgG, VH V2K, T28K, Y32F, A100N; VL unmutated (antibody, V domains shown)
VH: QKQLVQSGAEVKKPGASVKVSCKASGYKFTGFVMHWVRQAPGQGLEWMGFINPYNDDIQSNERFRGRVTMTRDTSISTAYMELSRLRSDDTAVYYCARGNGYNFDGAYRFFDFWGQGTMVTVSS
VL: DIVMTQSPLSLPVTPGEPASISCRSSQRLVHSNGNTYLHWYLQKPGQSPRLLIYRVSNRFPGVPDRFSGSGSGTDFTLKISRVEAEDVGVYYCSQSTHVPYTFGQGTKLEIK
notes: IgG format
For B8, the Kd in test [5] turned out to be 883 nM; in test [6], 2400 nM.

B9: hJovi-1 variant IgG, VH T28R, Y32F, A100N; VL unmutated (antibody, V domains shown)
VH: QVQLVQSGAEVKKPGASVKVSCKASGYRFTGFVMHWVRQAPGQGLEWMGFINPYNDDIQSNERFRGRVTMTRDTSISTAYMELSRLRSDDTAVYYCARGNGYNFDGAYRFFDFWGQGTMVTVSS
VL: DIVMTQSPLSLPVTPGEPASISCRSSQRLVHSNGNTYLHWYLQKPGQSPRLLIYRVSNRFPGVPDRFSGSGSGTDFTLKISRVEAEDVGVYYCSQSTHVPYTFGQGTKLEIK
notes: IgG format
For the molecule B9, the figures for the equilibrium dissociation constant (Kd) in test [5] and in test [6] were 582 nM and 1440 nM, respectively.

B10: hJovi-1 variant IgG, VH V2R, T28K, Y32F, A100N; VL unmutated (antibody, V domains shown)
VH: QRQLVQSGAEVKKPGASVKVSCKASGYKFTGFVMHWVRQAPGQGLEWMGFINPYNDDIQSNERFRGRVTMTRDTSISTAYMELSRLRSDDTAVYYCARGNGYNFDGAYRFFDFWGQGTMVTVSS
VL: DIVMTQSPLSLPVTPGEPASISCRSSQRLVHSNGNTYLHWYLQKPGQSPRLLIYRVSNRFPGVPDRFSGSGSGTDFTLKISRVEAEDVGVYYCSQSTHVPYTFGQGTKLEIK
notes: IgG format
As to B10, the Kd in test [5] worked out at 1600 nM; in test [6], 5110 nM.

B11: anti-TRBC2 scFv-Fc (T28K, Y32F, A100N, Y102L, N103M in VH; N35R in VL of hJovi-1) (Fc fusion)
chain: QVQLVQSGAEVKKPGASVKVSCKASGYKFTGFVMHWVRQAPGQGLEWMGFINPYNDDIQSNERFRGRVTMTRDTSISTAYMELSRLRSDDTAVYYCARGNGLMFDGAYRFFDFWGQGTMVTVSSGGGGSGGGGSGGGGSDIVMTQSPLSLPVTPGEPASISCRSSQRLVHSNGRTYLHWYLQKPGQSPRLLIYRVSNRFPGVPDRFSGSGSGTDFTLKISRVEAEDVGVYYCSQSTHVPYTFGQGTKLEIKRSDPRGPTIKPCPPCKCPAPNLLGGPSVFIFPPKIKDVLMISLSPIVTCVVVDVSEDDPDVQISWFVNNVEVHTAQTQTHREDYNSTLRVVSALPIQHQDWMSGKEFKCKVNNKDLPAPIERTISKPKGSVRAPQVYVLPPPEEEMTKKQVTLTCMVTDFMPEDIYVEWTNNGKTELNYKNTEPVLDSDGSYFMYSKLRVEKKNWVERNSYSCSVVHEGLHNHHTTKSFSRTPGK
notes: Multivalent format
On to B11, for which the half-life in test [2] came out at 16.2 s.
